± gives the uncertainty stated by the source.

The record followed here is the supplement of paper PMC7877785.

This series can be described thus: self-splicing fitness, log relative to wild type (ln ratio); higher = more splicing; Tetrahymena group I intron in knt gene, E. coli kanamycin selection, DiMSum; sequences stand for … in CUCUCU…GGAGGGAAAAGUUAUCAGGCAUGCACCUGGUAGCUAGUCUUUAAACCAAUAGAUUGCAUCGGUUUAAAAGGCAAGACCGUCAAAUUGCGGGAAAGGGGUCAACAGCCGUUCAGUACCAAGUCUCAGGGGAAACUUUGAGAUGGCCUUGCAAAGGGUAUGGUAAUAAGCUGACGGACAUGGUCCUAACCACGCAGCCAAGUCCUAAGUCAACAGAUCUUCUGUUGAUAUGGAUGCAGUUCACAGACUAAAUGUCGGUCGGGGAAGAUGUAUUCUUCUCAUAAGAUAUAGUCGGACCUCUCCUUAAUGGGAGCUAGCGGAUGAAGUGAUGCAACACUGGAGCCGCUGGGAACUAAUUUGUAUGCGAAAGUAUAUUGAUUAGUUUUGGAGUACUCGUGGUCG
Summed up:
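A randomised library covering all eight P1ex-region intron nucleotides was built with the intron in the knt kanamycin-resistance gene on pET-22b(+) and held in E. coli BL21(DE3). Cells were grown overnight at 37°C or 30°C on LB agar, with or without 25 μg/mL kanamycin, plus 100 μg/mL carbenicillin, 50 μM IPTG and 0.2% rhamnose, and pooled colonies were amplicon-sequenced on an Illumina HiSeq 2500. DiMSum fitness is the error-weighted combination of wild-type-normalised replicate fold changes, kanamycin versus none.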

Consider AAAUAGCAAUAUUACGCCCG, for which the “self-splicing fitness (ln)” value by setting is: (30 °C) -0.812 ± 0.19; (37 °C) 0.00909 ± 0.26.

With GUUGAGCAAUAUUACGCAUU, the “self-splicing fitness (ln)” value is, setting by setting: (30 °C) -2.68 ± 0.2; (37 °C) -2.45 ± 0.33.

Consider CUAAAGCAAUAUUACGGAGA, for which the “self-splicing fitness (ln)” value is -2.83 ± 0.16 (30 °C) and -2.79 ± 0.29 (37 °C).

With GAGCAGCAAUAUUACGUACC, the “self-splicing fitness (ln)” value is, setting by setting: (30 °C) -0.46 ± 0.12; (37 °C) -0.225 ± 0.14.

CGAAAGCAAUAUUACGAACA: the “self-splicing fitness (ln)” value is -1.92 ± 0.13 (30 °C) and -0.112 ± 0.12 (37 °C).

GAGCAGCAAUAUUACGGGUC: the “self-splicing fitness (ln)” value runs as follows: (30 °C) -3.07 ± 0.18; (37 °C) -1.91 ± 0.17.

Regarding AAACAGCAAUAUUACGAGAU, the “self-splicing fitness (ln)” value is -3.64 ± 0.2 (30 °C) and -2 ± 0.15 (37 °C).

As to UCAAAGCAAUAUUACGUCAU, the “self-splicing fitness (ln)” value (30 °C) is -2.36 ± 0.14 and the “self-splicing fitness (ln)” value (37 °C) was -2.71 ± 0.2.

For CUCCAGCAAUAUUACGGUUG, the “self-splicing fitness (ln)” value was -2.69 ± 0.097 (30 °C) and -1.01 ± 0.12 (37 °C).

On to ACUCAGCAAUAUUACGGCAA, for which the “self-splicing fitness (ln)” value (30 °C) is -1.24 ± 0.094 and the “self-splicing fitness (ln)” value (37 °C) is -0.795 ± 0.099.

Regarding GCACAGCAAUAUUACGACCC, the “self-splicing fitness (ln)” value stood at 0.615 ± 0.18 (30 °C) and 0.472 ± 0.25 (37 °C).

Regarding CUGCAGCAAUAUUACGAGAG, the “self-splicing fitness (ln)” value (30 °C) was -1.64 ± 0.12 and the “self-splicing fitness (ln)” value (37 °C) was -2.96 ± 0.22.

On to GUUGAGCAAUAUUACGGAGU, for which the “self-splicing fitness (ln)” value runs as follows: (30 °C) -3.52 ± 0.29; (37 °C) -2.7 ± 0.29.

For CAAUAGCAAUAUUACGCUUA, the “self-splicing fitness (ln)” value was -2.06 ± 0.1 (30 °C) and -1.74 ± 0.11 (37 °C).

For GAUCAGCAAUAUUACGAGUC, the “self-splicing fitness (ln)” value (30 °C) was -3.31 ± 0.29 and the “self-splicing fitness (ln)” value (37 °C) was -0.73 ± 0.16.

On to UGCGAGCAAUAUUACGUCGC, for which the “self-splicing fitness (ln)” value is, setting by setting: (30 °C) -1.88 ± 0.15; (37 °C) -2.32 ± 0.23.

As for CUGUAGCAAUAUUACGAUAU, the “self-splicing fitness (ln)” value runs as follows: (30 °C) -4.06 ± 0.32; (37 °C) -2.75 ± 0.32.

Take UAUCAGCAAUAUUACGUCCG: the “self-splicing fitness (ln)” value is -0.361 ± 0.11 (30 °C) and 0.121 ± 0.14 (37 °C).

As for AAUAAGCAAUAUUACGAUGU, the “self-splicing fitness (ln)” value (30 °C) was -0.62 ± 0.076 and the “self-splicing fitness (ln)” value (37 °C) was -0.682 ± 0.11.

On to AGUAAGCAAUAUUACGGGCA, for which the “self-splicing fitness (ln)” value was -0.89 ± 0.15 (30 °C) and -0.468 ± 0.19 (37 °C).

As for ACGUAGCAAUAUUACGGGAA, the “self-splicing fitness (ln)” value is, setting by setting: (30 °C) -1.95 ± 0.2; (37 °C) -3.19 ± 0.37.

Consider AGAGAGCAAUAUUACGGGCU, for which the “self-splicing fitness (ln)” value is, setting by setting: (30 °C) -3.62 ± 0.23; (37 °C) -1.48 ± 0.42.

For GUACAGCAAUAUUACGAUCC, the “self-splicing fitness (ln)” value (30 °C) is -0.427 ± 0.14 and the “self-splicing fitness (ln)” value (37 °C) is 0.81 ± 0.18.

For the sequence UGCUAGCAAUAUUACGGCCA, the “self-splicing fitness (ln)” value is, setting by setting: (30 °C) -0.186 ± 0.11; (37 °C) -0.178 ± 0.15.

Consider AAUCAGCAAUAUUACGCCAG, for which the “self-splicing fitness (ln)” value (30 °C) was -0.398 ± 0.16 and the “self-splicing fitness (ln)” value (37 °C) is -1.58 ± 0.17.

As to ACCUAGCAAUAUUACGAUGA, the “self-splicing fitness (ln)” value runs as follows: (30 °C) -1.21 ± 0.091; (37 °C) -0.609 ± 0.1.

On to GUACAGCAAUAUUACGUUCU, for which the “self-splicing fitness (ln)” value reads like this: (30 °C) -1.98 ± 0.1; (37 °C) -0.102 ± 0.1.

For the sequence UCAAAGCAAUAUUACGUGAU, the “self-splicing fitness (ln)” value was -3.95 ± 0.17 (30 °C) and -2.64 ± 0.21 (37 °C).

As for ACGUAGCAAUAUUACGGGUA, the “self-splicing fitness (ln)” value reads like this: (30 °C) -1.29 ± 0.13; (37 °C) -0.928 ± 0.12.

As to ACCAAGCAAUAUUACGGUUA, the “self-splicing fitness (ln)” value reads like this: (30 °C) -1.63 ± 0.1; (37 °C) -1.68 ± 0.096.

Take GACUAGCAAUAUUACGGUGG: the “self-splicing fitness (ln)” value is -1.91 ± 0.072 (30 °C) and -1.27 ± 0.082 (37 °C).

As to ACACAGCAAUAUUACGGCAC, the “self-splicing fitness (ln)” value runs as follows: (30 °C) -1.6 ± 0.066; (37 °C) -0.725 ± 0.084.

On to AAGUAGCAAUAUUACGGUAG, for which the “self-splicing fitness (ln)” value (30 °C) was -2.85 ± 0.22 and the “self-splicing fitness (ln)” value (37 °C) was -2.72 ± 0.2.

With UAUUAGCAAUAUUACGUCUU, the “self-splicing fitness (ln)” value (30 °C) was -1.86 ± 0.14 and the “self-splicing fitness (ln)” value (37 °C) was -0.681 ± 0.15.

Take UUCCAGCAAUAUUACGACUG: the “self-splicing fitness (ln)” value is, setting by setting: (30 °C) -3.9 ± 0.21; (37 °C) -2.99 ± 0.23.

Regarding CGGUAGCAAUAUUACGAGAU, the “self-splicing fitness (ln)” value runs as follows: (30 °C) -3.19 ± 0.3; (37 °C) -2.32 ± 0.28.

Turning to AGUUAGCAAUAUUACGAUAC, the “self-splicing fitness (ln)” value reads like this: (30 °C) -2.6 ± 0.25; (37 °C) -1.51 ± 0.24.

Consider GUGAAGCAAUAUUACGACGC, for which the “self-splicing fitness (ln)” value was determined as 0.482 ± 0.12 (30 °C) and 0.847 ± 0.17 (37 °C).

Consider CCGGAGCAAUAUUACGCUAC, for which the “self-splicing fitness (ln)” value (30 °C) was -2.55 ± 0.49.

As for UUACAGCAAUAUUACGGAUU, the “self-splicing fitness (ln)” value runs as follows: (30 °C) -3.81 ± 0.24; (37 °C) -2.08 ± 0.16.

Turning to GUCAAGCAAUAUUACGGGGU, the “self-splicing fitness (ln)” value was -5.42 ± 0.25 (30 °C) and -4.15 ± 0.19 (37 °C).

Consider CAUGAGCAAUAUUACGCACG, for which the “self-splicing fitness (ln)” value was -0.622 ± 0.097 (30 °C) and -0.67 ± 0.11 (37 °C).

As for AACGAGCAAUAUUACGGGAG, the “self-splicing fitness (ln)” value (30 °C) was -3.14 ± 0.17 and the “self-splicing fitness (ln)” value (37 °C) is -2.72 ± 0.19.

With AUCCAGCAAUAUUACGUUCG, the “self-splicing fitness (ln)” value runs as follows: (30 °C) -2.47 ± 0.1; (37 °C) -0.92 ± 0.12.

With UUAGAGCAAUAUUACGGGCA, the “self-splicing fitness (ln)” value (30 °C) is -2.25 ± 0.12 and the “self-splicing fitness (ln)” value (37 °C) was -1.54 ± 0.18.

For the sequence UCCCAGCAAUAUUACGAGAC, the “self-splicing fitness (ln)” value runs as follows: (30 °C) -3.6 ± 0.28; (37 °C) -0.749 ± 0.16.

Turning to UCAGAGCAAUAUUACGGAGG, the “self-splicing fitness (ln)” value was -3.4 ± 0.27 (30 °C) and -2.33 ± 0.34 (37 °C).

ACCCAGCAAUAUUACGAGCG: the “self-splicing fitness (ln)” value (30 °C) is -2.3 ± 0.074 and the “self-splicing fitness (ln)” value (37 °C) is -0.837 ± 0.091.

Take GCCGAGCAAUAUUACGGUCA: the “self-splicing fitness (ln)” value (30 °C) is -1.63 ± 0.098 and the “self-splicing fitness (ln)” value (37 °C) was -0.977 ± 0.09.

For GCGUAGCAAUAUUACGAGAG, the “self-splicing fitness (ln)” value runs as follows: (30 °C) -3.3 ± 0.28; (37 °C) -3.27 ± 0.33.

Consider CACCAGCAAUAUUACGUGUC, for which the “self-splicing fitness (ln)” value is, setting by setting: (30 °C) -3.8 ± 0.09; (37 °C) -3.28 ± 0.11.

Consider CUCAAGCAAUAUUACGUACU, for which the “self-splicing fitness (ln)” value (30 °C) was -3.51 ± 0.22 and the “self-splicing fitness (ln)” value (37 °C) is -1.29 ± 0.17.

As for AACAAGCAAUAUUACGCCAU, the “self-splicing fitness (ln)” value is -2.66 ± 0.11 (30 °C) and -2.08 ± 0.13 (37 °C).

As for GGCGAGCAAUAUUACGCCUC, under “30 °C”, the “self-splicing fitness (ln)” value is -1.67 ± 0.33.

As for CAUGAGCAAUAUUACGUAGA, the “self-splicing fitness (ln)” value (30 °C) is -4.22 ± 0.27 and the “self-splicing fitness (ln)” value (37 °C) was -2.77 ± 0.21.

Take CUACAGCAAUAUUACGGAUU: the “self-splicing fitness (ln)” value reads like this: (30 °C) -3.46 ± 0.14; (37 °C) -2.5 ± 0.21.

As for AAAUAGCAAUAUUACGUGUU, the “self-splicing fitness (ln)” value is -1.72 ± 0.083 (30 °C) and -1.75 ± 0.11 (37 °C).

Regarding ACGUAGCAAUAUUACGGUUA, the “self-splicing fitness (ln)” value by setting is: (30 °C) -0.772 ± 0.091; (37 °C) -0.0368 ± 0.092.

Consider ACCUAGCAAUAUUACGCACA, for which the “self-splicing fitness (ln)” value was -0.931 ± 0.078 (30 °C) and -0.476 ± 0.079 (37 °C).

In the case of AAUAAGCAAUAUUACGCCCC, the “self-splicing fitness (ln)” value is, setting by setting: (30 °C) 0.198 ± 0.2; (37 °C) -0.311 ± 0.24.
